Legend:
[1] = target: HLA-C*03:03; assay: IEDB peptide-MHC binding, purified MHC/direct/fluorescence; filed as Kd, often an IC50 or EC50 that approximates it; ≥ and ≤ were set here for values at or beyond the usual limits of such assays
[2] = target: HLA-C*07:02; assay: as above
[3] = target: HLA-A*30:01; assay: as above
[4] = target: HLA-A*11:01; assay: as above
[5] = target: HLA-A*31:01; assay: as above
[6] = target: HLA-A*03:01; assay: as above
[7] = target: HLA-A*02:01; assay: IEDB peptide-MHC binding, purified MHC/competitive/fluorescence; ≥ and ≤ were set here for values at or beyond the usual limits of such assays
[8] = target: HLA-A*11:01; assay: as above; conditions: source organism: Zaire ebolavirus
[9] = target: HLA-B*15:01; assay: as above; conditions: source organism: Zaire ebolavirus
[10] = target: HLA-A*01:01; assay: as above
[11] = target: HLA-A*03:01; assay: as above; conditions: source organism: Zaire ebolavirus
[12] = target: HLA-B*15:42; assay: IEDB peptide-MHC binding, purified MHC/competitive/fluorescence; filed as Kd, often an IC50 or EC50 that approximates it; ≥ and ≤ were set here for values at or beyond the usual limits of such assays; conditions: source organism: Giardia lamblia ATCC 50803
[13] = target: HLA-B*45:06; assay: as above; conditions: source organism: Giardia lamblia ATCC 50803
[14] = target: HLA-B*83:01; assay: as above; conditions: source organism: Giardia lamblia ATCC 50803
[15] = target: HLA-B*07:02; assay: IEDB peptide-MHC binding, purified MHC/direct/fluorescence; filed as Kd, often an IC50 or EC50 that approximates it; ≥ and ≤ were set here for values at or beyond the usual limits of such assays
[16] = target: HLA-B*08:01; assay: as above
[17] = target: HLA-B*40:01; assay: as above
[18] = target: HLA-B*44:02; assay: as above
[19] = target: HLA-B*58:01; assay: as above
[20] = target: HLA-B*27:05; assay: as above
[21] = target: HLA-A*26:01; assay: as above
[22] = target: HLA-A*69:01; assay: as above
[23] = target: HLA-B*15:01; assay: as above
[24] = target: HLA-A*01:01; assay: as above
[25] = target: HLA-A*24:03; assay: IEDB peptide-MHC binding, purified MHC/competitive/fluorescence; filed as Kd, often an IC50 or EC50 that approximates it; ≥ and ≤ were set here for values at or beyond the usual limits of such assays; conditions: source organism: Bacillus anthracis str. A2012
[26] = target: HLA-B*53:01; assay: IEDB peptide-MHC binding, purified MHC/competitive/radioactivity; filed as Kd, often an IC50 or EC50 that approximates it; ≥ and ≤ were set here for values at or beyond the usual limits of such assays; conditions: source organism: SARS coronavirus Tor2
[27] = target: HLA-B*51:01; assay: as above; conditions: source organism: SARS coronavirus Tor2
[28] = target: HLA-B*54:01; assay: as above; conditions: source organism: SARS coronavirus Tor2
[29] = target: HLA-B*35:01; assay: as above; conditions: source organism: SARS coronavirus Tor2
[30] = target: HLA-A*02:01; assay: IEDB peptide-MHC binding, purified MHC/direct/fluorescence; filed as Kd, often an IC50 or EC50 that approximates it; ≥ and ≤ were set here for values at or beyond the usual limits of such assays
[31] = target: HLA-A*24:03; assay: as above
[32] = target: HLA-A*24:02; assay: IEDB peptide-MHC binding, purified MHC/competitive/fluorescence; ≥ and ≤ were set here for values at or beyond the usual limits of such assays; conditions: source organism: Zaire ebolavirus
[33] = target: HLA-B*35:01; assay: IEDB peptide-MHC binding, purified MHC/direct/fluorescence; filed as Kd, often an IC50 or EC50 that approximates it; ≥ and ≤ were set here for values at or beyond the usual limits of such assays; conditions: source organism: Escherichia coli O157:H7
[34] = target: HLA-B*39:01; assay: IEDB peptide-MHC binding, purified MHC/competitive/fluorescence; filed as Kd, often an IC50 or EC50 that approximates it; ≥ and ≤ were set here for values at or beyond the usual limits of such assays; conditions: source organism: Mammarenavirus juninense
[35] = target: HLA-B*46:01; assay: IEDB peptide-MHC binding, purified MHC/direct/fluorescence; filed as Kd, often an IC50 or EC50 that approximates it; ≥ and ≤ were set here for values at or beyond the usual limits of such assays; conditions: source organism: Mammarenavirus juninense
[36] = target: HLA-B*57:01; assay: as above; conditions: source organism: Mammarenavirus juninense
[37] = target: HLA-B*48:01; assay: as above; conditions: source organism: Mammarenavirus juninense
[38] = target: HLA-B*18:01; assay: as above; conditions: source organism: Mammarenavirus juninense
[39] = target: HLA-A*29:02; assay: as above; conditions: source organism: Mammarenavirus juninense
[40] = source organism: Camelpox virus CMS
[41] = source organism: Zaire ebolavirus
[42] = source organism: Giardia lamblia ATCC 50803
[43] = source organism: Brucella abortus 2308
[44] = source organism: Sudan ebolavirus
[45] = source organism: Escherichia coli O157:H7
[46] = source organism: Mammarenavirus juninense
[47] = source organism: Yellow fever virus

With FAKPAGTPM the Kd ([1]; source organism: Burkholderia cenocepacia HI2424) was ≤ 0.001 µM.
HYRPYHYYH was tested, and the Kd [2, 40] was 0.013 µM, the Kd [3, 40] was 0.023 µM and the Kd [4, 40] was ≥ 20 µM. The Kd [5, 40] was 0.0032 µM and the Kd [6, 40] was ≥ 20 µM.
In the case of GSYGEYQSY, the IC50 [7, 41] is reported as ≥ 154 µM, the IC50 [8] is reported as 1.29 µM and the IC50 [9] is reported as 3.51 µM. The IC50 [10, 41] was 9.91 µM and the IC50 [11] was 26.1 µM.
For AEFPVGSTA, the Kd [12] was ≥ 5 µM, the Kd [13] was ≥ 5 µM and the Kd [14] was ≥ 5 µM. For the same sequence, the Kd [15, 42] was ≥ 20 µM, the Kd [16, 42] was ≥ 20 µM and the Kd [17, 42] was 0.41 µM. For the same sequence, the Kd [4, 42] was ≥ 20 µM, the Kd [18, 42] was ≥ 20 µM and the Kd [19, 42] was ≥ 20 µM. The Kd [5, 42] was ≥ 20 µM, the Kd [20, 42] was ≥ 20 µM and the Kd [21, 42] was ≥ 20 µM. The Kd [22, 42] was ≥ 20 µM, the Kd [23, 42] was ≥ 20 µM and the Kd [24, 42] was ≥ 20 µM. The Kd [6, 42] was ≥ 20 µM.
In the case of FFSPVIASL, the Kd [25] is reported as ≤ 0.0001 µM and the Kd ([1]; source organism: Bacillus anthracis str. A2012) is reported as ≤ 0.001 µM.
FPREGVFVF showed a Kd ([15]; source organism: SARS-CoV1) of 0.131 µM, a Kd ([16]; source organism: SARS-CoV1) of 0.116 µM and a Kd ([2]; source organism: SARS-CoV1) of 0.51 µM. It also gave a Kd ([23]; source organism: SARS-CoV1) of 2.14 µM, a Kd [26] of 0.00536 µM and a Kd [27] of 0.0314 µM. For the same sequence, the Kd [28] was 0.0925 µM and the Kd [29] was 0.000684 µM.
With TTIEDILPK the Kd [30, 42] was ≥ 20 µM, the Kd [15, 42] was ≥ 20 µM and the Kd [16, 42] was ≥ 20 µM. The Kd [31, 42] was ≥ 20 µM, the Kd [17, 42] was ≥ 20 µM and the Kd [3, 42] was 0.471 µM. For the same sequence, the Kd [4, 42] was 0.0092 µM, the Kd [18, 42] was ≥ 20 µM and the Kd [19, 42] was ≥ 20 µM. For the same sequence, the Kd [5, 42] was 2.09 µM, the Kd [20, 42] was ≥ 20 µM and the Kd [21, 42] was 0.478 µM. For the same sequence, the Kd [22, 42] was ≥ 20 µM, the Kd [23, 42] was ≥ 20 µM and the Kd [24, 42] was ≥ 20 µM. It also gave a Kd [6, 42] of 2.84 µM.
KQLEYSWVL was tested, and the Kd [30, 43] was 0.0017 µM, the Kd [22, 43] was 0.846 µM and the Kd ([1]; source organism: Brucella canis ATCC 23365) was ≥ 20 µM.
In the case of GTNETEYLF, the IC50 [7, 41] is reported as 20.9 µM, the IC50 [32] is reported as 8.71 µM and the IC50 [10, 41] is reported as ≥ 373 µM.
VSYEAGEWA showed an IC50 [7, 44] of 15 µM and an IC50 [10, 44] of 50.3 µM.
ITAGYNRYY was tested, and the Kd [30, 45] was ≥ 20 µM, the Kd [15, 45] was ≥ 20 µM and the Kd [16, 45] was ≥ 20 µM. For the same sequence, the Kd [31, 45] was ≥ 20 µM, the Kd [17, 45] was ≥ 20 µM and the Kd [3, 45] was 2.13 µM. The Kd [4, 45] was 2.56 µM, the Kd [18, 45] was ≥ 20 µM and the Kd [19, 45] was 4.05 µM. The Kd [5, 45] was ≥ 20 µM, the Kd [20, 45] was ≥ 20 µM and the Kd [21, 45] was 0.205 µM. For the same sequence, the Kd [22, 45] was ≥ 20 µM, the Kd [23, 45] was 0.108 µM and the Kd [33] was 0.861 µM. It also gave a Kd [24, 45] of 0.535 µM and a Kd [6, 45] of 3.25 µM.
FRRVAHSSL was tested, and the Kd [34] was 0.377 µM, the Kd [30, 46] was ≥ 20 µM and the Kd [35] was ≥ 20 µM. The Kd [36] was ≥ 20 µM, the Kd [2, 46] was 0.053 µM and the Kd [37] was ≥ 20 µM. For the same sequence, the Kd [18, 46] was ≥ 20 µM, the Kd [19, 46] was ≥ 20 µM and the Kd [5, 46] was ≥ 20 µM. The Kd [22, 46] was ≥ 20 µM, the Kd [23, 46] was ≥ 20 µM and the Kd [38] was ≥ 20 µM. The Kd [39] was ≥ 20 µM, the Kd [24, 46] was ≥ 20 µM and the Kd [6, 46] was ≥ 20 µM.
In the case of YLIIGILTL, the Kd [22, 47] is reported as ≥ 20 µM and the Kd [1, 47] is reported as 0.018 µM.
